Experiments:
[1] = system: human monocyte-derived macrophages (hMDMs); assay: High throughput phenotypic screen of macrophage activation (cell shape, Z-score); type: cell-based; settings: known M1-/M2-activating stimuli;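 further: phalloidin and DAPI stained hMDMs imaged by high-content microscopy, cell eccentricity compared with DMSO control by T-test, round morphology scored negative, elongated positive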
Method: The Z-score was calculated by T-test to measure the difference of cell morphology between treatment and control. Stimuli had negative Z-scores when induced cells to round morphology and positive scores when induced cells to elongated morphology. […] Equally mixed human monocytes isolated from fresh blood of 4 healthy donors were cultured in vitro with 50 ng/mL M-CSF for 7 days. hMDMs were trypsinized and plated on 384-well plates (5000 cells/well in 50 μL). Cells were recovered in 10 ng/mL M-CSF for 16 hrs and then treated with compounds for 24 hrs. Cells were washed, fixed and stained with Phalloidin and DAPI. The plates were scanned with a high-content microscope with six-fields per well to quantify the cell number and cell morphology. […] The cell eccentricity was calculated to measure the cell morphology. The Z-score was calculated by T-test to measure the difference in cell morphologies between each compound and DMSO control.
Cells were treated with a library of over 4000 individual compounds or drugs at the final concentration of 20 μM using the CyBi-Well simultaneous pipettor (CyBio). […] After 24 hr incubation, supernatants were removed using the microplate washer (Bioteck) and cells were fixed by adding 50 μL 16% paraformaldehyde (Thermo Scientific) with the dispenser for 20 minutes. Cells were then washed with 50 μL 1×PBS twice and incubated for 20 minutes with NucBlue and AF746 Phalloidin (Invitrogen) to stain nucleus and cytoskeleton. Cells were then washed with 50 μL 1×PBS twice and maintained in PBS for the image acquirement. Plates were read in the Opera Phenix high content screening system (PerkinElmer) to photograph cells using 20× objective in 2 fluorescent channels (Blue and FarRed). A total of 6 different fields in each well and an average of 1,000 cells were imaged per well. CellProfiler was used to identify each cell by overlapping signals from its nucleus and cytoskeleton, and calculate the eccentricity as the parameter to measure the cell morphology. The Z-score was calculated by T-test to measure the difference of cell morphology between each treatment and control. For each row of the 384-well plate, total 4 wells with first and last two columns treated with the same concentration of DMSO were combined as the control for the other 20 treatment wells in that row. In the meantime, classic M1 and M2 stimuli were added to generate the gold-standard Z-score cutoffs with M1 or M2 activation. Classic M1 stimuli include LPS (100 ng/mL), IFNγ (50 ng/mL, Peprotech), TNFα (50 ng/mL, Peprotech), or IFNγ plus TNFα. Classic M2 stimuli include IL-10 (10 ng/mL, Peprotech), IL-4 (10 ng/mL, Peprotech), or IL-13 (5 ng/mL, Peprotech).

hMDMs [2] = assay: Flow cytometry of M1 markers (CD80, CD86) and M2 markers (CD206, CD163) in hMDMs; type: cell-based, human; settings: 24 hrs
Method: FIGS. 7A-7B show morphology and phenotypes of activated macrophages. […] The resulting macrophages were polarized to M1 by IFNγ or M2 by IL4. Then, M1 macrophages were treated with M2-type compound bosutinib ([…]) for 24 hrs, and M2 macrophages were treated with M1-type compound thiostrepton ([…]) for 24 hrs. F-actin was stained and images were acquired by fluorescent microscopy with 60× objective. Cell nuclei are stained with DAPI. Representative data were shown from two independent experiments. […] Shown are the representative staining profiles from three independent experiments. The numbers show mean fluorescent intensity (MFI)+/−standard error of the mean (SEM) for n=3 samples per group.
FIGS. 9A-9C show comparison of the differentially expressed genes induced by selected compounds (FIG. 9A), ligands for novel pathways (FIG. 9B), and controls (IL-4 and IFNγ). […] Shown are the changes of the relative mean fluorescence intensity (MFI) to controls. 0.2 refers to 20% MFI increase.
B6 mice were purchased from the Jackson Laboratory and maintained in the animal facility at the Massachusetts Institute of Technology (MIT). NSG mice were purchased from the Jackson Laboratory and maintained under specific pathogen-free conditions in the animal facilities at MIT. […] The data were analyzed by FlowJo. […]

hMDMs [3] = assay: RNA-seq transcriptional response of hMDMs (GSEA, GO enrichment); type: cell-based, human; settings: hMDMs, 24 hrs, GSEA
Method: Duplicate hMDM samples were treated with 2 M2-activating and 6 M1-activating compounds as well as IL-4 and IFNγ for 24 hrs. Gene expression levels were measured by RNA-seq separately. GSEA preranked analysis was performed based on the whole genome gene list ranked on gene expression changes using a gene set of 49 transcriptional modules in response to 29 stimuli in hMDMs. bosut.: bosutinib; alster.: alsterpaullone; mocet.: mocetinostat; thios.: thiostrepton; niclo.: niclosamide; chlor.: chlorhexidine; fenb.: fenbendazole; fluvo.: fluvoxamine. […] Duplicate hMDM samples were stimulated with each ligand and analyzed by RNA-seq separately.
DEGs were identified by edgeR at P<0.05 with at least 2 fold-change.
RNAs were extracted with RNeasy MiniElute kit (Qiagen), converted into cDNA and sequenced using Next-Generation Sequencing (Illumina). […] Differential expression analysis was performed using the program edgeR at P<0.05 with a 2 fold-change. The gene expression level across different samples was normalized and quantified using the function of cpm. Differentially expressed genes were annotated using online functional enrichment analysis tool DAVID (http://david.ncifcrf.gov/). Gene set enrichment analysis were performed with GSEA with FDR q-value<0.05.
Fresh hMDMs were treated with compounds at the EC for 24 hours, followed by RNA-seq.

Molecule	cell shape induced [1]	expression of M1 markers CD80 and CD86 (hMDMs [2])	expression of M2 markers CD206 and CD163 (hMDMs [2])	gene expression of TPP modules (#30, #32) (hMDMs [3])	gene expression of typical M1 modules (#7, #8) (hMDMs [3])
IL-4: classic M2 stimulus (protein, UniProt P05112 25-153, looked up) Interleukin-4: HKCDITLQEIIKTLNSLTEQKTLCTELTVTDIFAASKNTTEKETFCRAATVLRQFYSHHEKDTRCLGATAQQFHRHKQLIRFLKRLDRNLWGLAGLNSCPVKEANQSTLENFLERLKTIMREKYSKCSS	elongated cell shape	suppressed	up-regulated	–	–
EGF: ligand of novel pathway (protein, UniProt P01133 23-1207, looked up, Pro-epidermal growth factor, ligand of novel pathway) Pro-epidermal growth factor: PQHWSCPEGTLAGNGNSTCVGPAPFLIFSHGNSIFRIDTEGTNYEQLVVDAGVSVIMDFHYNEKRIYWVDLERQLLQRVFLNGSRQERVCNIEKNVSGMAINWINEEVIWSNQQEGIITVTDMKGNNSHILLSALKYPANVAVDPVERFIFWSSEVAGSLYRADLDGVGVKALLETSEKITAVSLDVLDKRLFWIQYNREGSNSLICSCDYDGGSVHISKHPTQHNLFAMSLFGDRIFYSTWKMKTIWIANKHTGKDMVRINLHSSFVPLGELKVVHPLAQPKAEDDTWEPEQKLCKLRKGNCSSTVCGQDLQSHLCMCAEGYALSRDRKYCEDVNECAFWNHGCTLGCKNTPGSYYCTCPVGFVLLPDGKRCHQLVSCPRNVSECSHDCVLTSEGPLCFCPEGSVLERDGKTCSGCSSPDNGGCSQLCVPLSPVSWECDCFPGYDLQLDEKSCAASGPQPFLLFANSQDIRHMHFDGTDYGTLLSQQMGMVYALDHDPVENKIYFAHTALKWIERANMDGSQRERLIEEGVDVPEGLAVDWIGRRFYWTDRGKSLIGRSDLNGKRSKIITKENISQPRGIAVHPMAKRLFWTDTGINPRIESSSLQGLGRLVIASSDLIWPSGITIDFLTDKLYWCDAKQSVIEMANLDGSKRRRLTQNDVGHPFAVAVFEDYVWFSDWAMPSVMRVNKRTGKDRVRLQGSMLKPSSLVVVHPLAKPGADPCLYQNGGCEHICKKRLGTAWCSCREGFMKASDGKTCLALDGHQLLAGGEVDLKNQVTPLDILSKTRVSEDNITESQHMLVAEIMVSDQDDCAPVGCSMYARCISEGEDATCQCLKGFAGDGKLCSDIDECEMGVPVCPPASSKCINTEGGYVCRCSEGYQGDGIHCLDIDECQLGEHSCGENASCTNTEGGYTCMCAGRLSEPGLICPDSTPPPHLREDDHHYSVRNSDSECPLSHDGYCLHDGVCMYIEALDKYACNCVVGYIGERCQYRDLKWWELRHAGHGQQQKVIVVAVCVVVLVMLLLLSLWGAHYYRTQKLLSKNPKNPYEESSRDVRSRRPADTEDGMSSCPQPWFVVIKEHQDLKNGGQPVAGEDGQAADGSMQPTSWRQEPQLCGMGTEQGCWIPVSSDKGSCPQVMERSFHMPSYGTQTLEGGVEKPHSLLSANPLWQQRALDPPHQMELTQ	–	–	–	down-regulated	up-regulated
IL10: classic M2 stimulus (protein, UniProt P22301 19-178, looked up) Interleukin-10: SPGQGTQSENSCTHFPGNLPNMLRDLRDAFSRVKTFFQMKDQLDNLLLKESLLEDFKGYLGCQALSEMIQFYLEEVMPQAENQDPDIKAHVNSLGENLKTLRLRLRRCHRFLPCENKSKAVEQVKNAFNKLQEKGIYKAMSEFDIFINYIEAYMTMKIRN	elongated cell shape	–	–	–	–

From patent publication US20250262167A1, “COMPOUNDS, TARGETS AND PATHWAYS FOR MACROPHAGE MODULATION” (Massachusetts Institute of Technology, priority 2020, published 2025)
